Biological target: T1, 6His-msfGFP-TEV-Mis18FL (S. pombe, UniProt Q9P802 1-194)
T1 construct: Mis18, S. pombe, full length (residues 1-194); Cloned into the vector pET His6 msfGFP TEV (9GFP, Addgene 48287); also called GFP-Mis18; 6His-GFP-Mis18FL; source: E. coli BL21 Gold, purified (HisTrap HP, SEC); not shown: msfGFP, N-terminal, kept
T1 sequence (looked up): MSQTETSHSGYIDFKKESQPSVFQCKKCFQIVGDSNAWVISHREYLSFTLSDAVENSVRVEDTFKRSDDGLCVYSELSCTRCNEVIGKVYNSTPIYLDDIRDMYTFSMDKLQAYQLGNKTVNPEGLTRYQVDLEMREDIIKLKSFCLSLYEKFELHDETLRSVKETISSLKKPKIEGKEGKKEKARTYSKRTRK
Test: pull-down; 6His-MBP-Sad1(2-167) or 6His-MBP on amylose resin mixed with candidate binding proteins, each protein at 5 μM; 20 mM HEPES pH 7.0, 150 mM NaCl, 1 mM TCEP, 0.01% Tween-20; 4°C 1 hr; Coomassie-stained SDS-PAGE
Settings: both partners purified

binding result: binds
B1: 6His-MBP-Sad1(2-167) (domain or fragment, S. pombe, UniProt Q09825 2-167, looked up)
chain: FTNTPVGGKRERQNGAHPAWSTLGANSAQIHQNTADLASKMHKLRYTKIRSPPTRVSIESITPKQRFPAPNFEQAYHSNIRYEQEESDNEEFENVVKNGHEASTNVFYESDGDDEEFVNEEYENSIDEESDDEGYSLNEDTTATNASFRYPMNQRSTRKSQFYSSK
notes: Cloned into the vector pET-6His-MBP-TEV (9C, Addgene 48286) by LIC; also called MBP-Sad1-N; source: E. coli BL21-CodonPlus (DE3)-RIPL, purified (TALON resin); not shown: His6, N-terminal, kept; MBP, N-terminal, kept

Reference: paper PMC7618776, “Direct recruitment of Mis18 to interphase spindle pole bodies promotes CENP-A chromatin assembly” (Current biology : CB, 2023)
